Data: publication PMC12395305 (2025)

Assays:
beta-2 microglobulin [1] = target: T1, beta-2 microglobulin (UniProt P61769 21-119); test: BLI
beta-2 microglobulin [2] = target: T1, beta-2 microglobulin; test: BLI; remark: listed apart in the source
[3] = target: T2, green fluorescent protein (UniProt P42212 2-238 = GFP); test: SPR
GFP-K162R = test: SPR
GFP-K131S = test: SPR
GFP-K140R = test: SPR
GFP-K41R = test: SPR
GFP-K166R = test: SPR
[4] = target: T2, green fluorescent protein; test: SPR; remark: listed apart in the source

| Kd (beta-2 microglobulin [1]) | koff (beta-2 microglobulin [2]) | Kd [3] | Kd (GFP-K162R) | koff (GFP-K162R) | Kd (GFP-K131S) | koff (GFP-K131S) | Kd (GFP-K140R) | koff (GFP-K140R) | Kd (GFP-K41R) | koff (GFP-K41R) | Kd (GFP-K166R) | koff (GFP-K166R) | koff [4] | Binder |
| --- | --- | --- | --- | --- | --- | --- | --- | --- | --- | --- | --- | --- | --- | --- |
| 105 nM | 0.018 s⁻¹ | – | – | – | – | – | – | – | – | – | – | – | – | nanobody 24 (VHH) VHH: QVQLQESGGGSVQAGGSLRLSCAASGYTDSRYCMAWFRQAPGKEREWVARINSGRDITYYADSVKGRFTFSQDNAKNTVYLQMDSLEPEDTATYYCATDIPLRCRDIVAKGGDGFRYWGQGTQVTVSS |
| – | – | 1.11 nM | 1.26 nM | 0.000171 s⁻¹ | 1.16 nM | 0.000168 s⁻¹ | 1.05 nM | 0.000169 s⁻¹ | 1.16 nM | 0.000174 s⁻¹ | 1.11 nM | 0.000175 s⁻¹ | 0.000188 s⁻¹ | αGFP-S54C (VHH) VHH: QVQLVESGGALVQPGGSLRLSCAASGFPVNRYSMRWYRQAPGKEREWVAGMSCAGDRSSYEDSVKGRFTISRDDARNTVYLQMNSLKPEDTAVYYCNVNVGFEYWGQGTQVTVSS |
